Results taken from article PMC9213739, “Substrates and Loaded Iron Ions Relative Position Influence the Catalytic Characteristics of the Metalloenzymes Angelica archangelica Flavone Synthase I and Camellia sinensis Flavonol Synthase” (Frontiers in Pharmacology, 2022).

Substrate: COc1ccc([C@@H]2CC(=O)c3c(O)cc(O)cc3O2)cc1O
Assay: UPLC-MS product formation, Lineweaver-Burk
Format: biochemical, Camellia sinensis
Conditions: 4'-O-methyl taxifolin formation (main product), Tris-HCl pH 7.5, 23 °C, 1 h, 5 mM 2-mercaptoethanol, 1 mM NADPH, 'separated protein', purification not described
From the text: UPLC-MS product formation, Lineweaver-Burk on CaFLS

B1: CaFLS (Camellia sinensis) (protein)
chain: MEVERVQALSHVTLHELPAKFIRPAHEQPENSKAIEGVTVPVISLSRPHDVVVDALSKACSEWGFFLITDHGVEPSLIGRLKEVGEEFFKLPQKEKESYANDPSSGSFEGYGTKMTKNFDEKVEWIDYYFHVMHPPKKLNLDMWPKNPSSYRGVTEEYNVEILRTTNKLLELLSEGLGLDGKVLNSSLGGDEIEFEMKINMYPPCPQPELALGVEPHTDMSALTLLIPNDVPGLQVWKDGNWVAVNYLPNALFVHVGDQLEVLSNGKYKSVLHRSLVNKERTRMSWAVFVVPPHEAVIGPLPELIDEKNPAKYSTKTYAEYRYRKFNKIPQ
notes: synthetic gene in pET-28a(+) (NcoI/XhoI), expressed in E. coli BL21(DE3); 331 residues; mutants carry fragments of AnFNS I
Km: 55.47 µM | Vmax: 0.0558 µmol/min/mg | kcat: 0.0349 s⁻¹ | kcat/Km: 629 M⁻¹ s⁻¹
